From patent publication US20070190061A1
One block for each binder: values may come before it.

Molecular target: HMW-MAA-specific idiotypic mAb 763.74
Test: peptide concentration giving 50% inhibition of biotinylated mAb 763.74 binding to Colo38 cells, cell ELISA

IC50: 900 nM
B1: peptide PHMW-MAA.D2.7 (HMW-MAA-derived peptide) (peptide)
peptide: IRSGDEVHYHVTAGPRW

IC50: 871 nM
B2: peptide PMK2-23H3 (anti-id mAb MK2-23 H3-derived peptide) (peptide)
peptide: ARSNYVGYHVRWYFD
